Source: paper PMC12319226 (Frontiers in Bioinformatics, 2025)
Numbering of substitutions follows the chain as printed.

T1: fHbp m001672 (Neisseria meningitidis, fHbp …, point mutant)
T1 chain: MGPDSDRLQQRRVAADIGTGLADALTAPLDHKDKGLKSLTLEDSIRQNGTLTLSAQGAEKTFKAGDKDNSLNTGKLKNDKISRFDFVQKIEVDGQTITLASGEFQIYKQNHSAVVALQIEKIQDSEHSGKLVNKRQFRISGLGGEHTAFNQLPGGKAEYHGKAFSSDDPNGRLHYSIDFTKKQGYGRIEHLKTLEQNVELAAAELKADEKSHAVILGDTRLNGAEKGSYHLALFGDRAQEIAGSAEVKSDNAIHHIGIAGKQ

T2: fHbp m001661 (Neisseria meningitidis, fHbp …, point mutant)
T2 chain: T1 chain with D250V, A252G

T3: fHbp m002414 (Neisseria meningitidis fHbp v3.28, …, chimera)
T3 chain: T1 chain with L221Y, S249T, D250V, N251E, A252S

T4: fHbp m001847 (Neisseria meningitidis, engineered fHbp …, chimera)
T4 chain: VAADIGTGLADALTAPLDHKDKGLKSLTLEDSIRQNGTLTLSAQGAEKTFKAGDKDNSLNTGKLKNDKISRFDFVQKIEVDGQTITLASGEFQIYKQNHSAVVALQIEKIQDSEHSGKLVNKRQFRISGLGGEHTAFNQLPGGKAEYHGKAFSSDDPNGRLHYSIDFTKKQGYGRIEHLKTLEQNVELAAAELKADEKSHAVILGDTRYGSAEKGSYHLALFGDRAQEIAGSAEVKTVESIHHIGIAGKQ

T5: fHbp m001211 (Neisseria meningitidis fHbp v3.28-based …, point mutant)
T5 chain: T1 chain with N222G, S249T, A252G

T6: fHbp m001200 (Neisseria meningitidis fHbp v3.28-based …, point mutant)
T6 chain: T1 chain with N222G, S249T, D250V, N251E, A252S

T7: fHbp m001621 (Neisseria meningitidis, fHbp …, point mutant)
T7 chain: T1 chain with G223S, S249T, N251V

T8: fHbp m002417 (Neisseria meningitidis fHbp v3.28, …, chimera)
T8 chain: T1 chain with L221Y, S249T, D250V, A252S

T9: fHbp m001497 (Neisseria meningitidis, fHbp …, point mutant)
T9 chain: T1 chain with G223Q, D250V, N251E, A252S

B1: chimeric antibody h12C1 (antibody, V domains shown)
VH: QVQLQESGPELVKPGASVKISCKASGYSFSDYNMSWVKQSNGKSLEWIGIIDPKYGTINYNQKFKGKATLTVDQASSTAYMQLNSLTSEDSAVYYCVRDYYGSSYFDYWGQGTTLTVSS
VL: DIVLTQSPSSIYASLGERVTLTCKASQDIHNYLNWFQQKPGKSPKTLIYRANRLVDGVPSRFSGGGSGQDYSLTISSLEFEDIGIYYCLQYDEFPPTFGGGTRLEIK
notes: also called humanized 12C1; source: Expi293, purified (MabSelect SuRe, SEC); copies: 2 + 2
B2: mAb 1E6 (human) (antibody, V domains shown)
VH: EVQLVQSGAEVKKPGSSVKVSCKASGGTVIDYPITWVRQAPGQGLEWVGGFVPLFRTSNYGQKFQGRVTITADKSTSTASMELNSLTSEDTAIYYCARGDTAMGPFDYWGQGTLVTVSS
VL: SYVLTQPPSLSVAPGKTATLTCGGNNIAGKTVHWYQQRPGQAPVLVISYDSDRPSGIPERFSGSNSANTATLTISRVEAGDEADYYCQVWDRNSDHWVFGGGTKLTVL
notes: source: Expi293, purified (MabSelect SuRe, SEC); copies: 2 + 2

Columns and labels:
Experiment in all cases: BLI
Conditions in all cases: both partners purified
fHbp m001672 = target: T1, fHbp m001672
fHbp m001661 = target: T2, fHbp m001661
fHbp m002414 = target: T3, fHbp m002414
fHbp m001847 = target: T4, fHbp m001847
fHbp m001211 = target: T5, fHbp m001211
fHbp m001200 = target: T6, fHbp m001200
fHbp m001621 = target: T7, fHbp m001621
fHbp m002417 = target: T8, fHbp m002417
fHbp m001497 = target: T9, fHbp m001497

| Binder | Kd (fHbp m001672) | koff (fHbp m001672) | kon (fHbp m001672) | Kd (fHbp m001661) | koff (fHbp m001661) | kon (fHbp m001661) | Kd (fHbp m002414) | koff (fHbp m002414) | kon (fHbp m002414) | Kd (fHbp m001847) | koff (fHbp m001847) | kon (fHbp m001847) | Kd (fHbp m001211) | koff (fHbp m001211) | kon (fHbp m001211) | Kd (fHbp m001200) | koff (fHbp m001200) | kon (fHbp m001200) | Kd (fHbp m001621) | koff (fHbp m001621) | also measured |
| --- | --- | --- | --- | --- | --- | --- | --- | --- | --- | --- | --- | --- | --- | --- | --- | --- | --- | --- | --- | --- | --- |
| B1 | 117 nM | 0.01791 ± 0.000106 s⁻¹ | 154000 ± 3920 M⁻¹ s⁻¹ | 167 nM | 0.0207 ± 0.000141 s⁻¹ | 124000 ± 4490 M⁻¹ s⁻¹ | 66.4 nM | 0.00858 s⁻¹ | 129000 ± 5630 M⁻¹ s⁻¹ | 108 nM | 0.00885 ± 0.000103 s⁻¹ | 81800 ± 5640 M⁻¹ s⁻¹ | 19.8 nM | 0.00753 s⁻¹ | 381300 ± 3730 M⁻¹ s⁻¹ | 0.243 nM | 0.000202 s⁻¹ | 830700 ± 4100 M⁻¹ s⁻¹ | 54 nM | 0.0115 s⁻¹ | kon (fHbp m001621): 214000 ± 5580 M⁻¹ s⁻¹; Kd (fHbp m002417): 95.7 nM; koff (fHbp m002417): 0.00962 s⁻¹; kon (fHbp m002417): 101000 ± 1890 M⁻¹ s⁻¹; Kd (fHbp m001497): 3.06 nM; koff (fHbp m001497): 0.000593 s⁻¹; kon (fHbp m001497): 193000 ± 2790 M⁻¹ s⁻¹ |
| B2 | 1 nM | 0.00032 s⁻¹ | 320000 ± 1490 M⁻¹ s⁻¹ | 0.678 nM | 0.000193 s⁻¹ | 285300 ± 2180 M⁻¹ s⁻¹ | 1.09 nM | 0.000223 s⁻¹ | 205200 ± 950 M⁻¹ s⁻¹ | 0.348 nM | 0.000123 s⁻¹ | 353300 ± 2150 M⁻¹ s⁻¹ | 0.507 nM | 0.000219 s⁻¹ | 431400 ± 2210 M⁻¹ s⁻¹ | 0.219 nM | 0.000303 s⁻¹ | 1.385e+06 ± 5610 M⁻¹ s⁻¹ | 0.464 nM | 0.000174 s⁻¹ | kon (fHbp m001621): 375400 ± 1900 M⁻¹ s⁻¹; Kd (fHbp m002417): 0.502 nM; koff (fHbp m002417): 0.000179 s⁻¹; kon (fHbp m002417): 356800 ± 1380 M⁻¹ s⁻¹; Kd (fHbp m001497): 0.563 nM; koff (fHbp m001497): 0.000176 s⁻¹; kon (fHbp m001497): 311700 ± 2460 M⁻¹ s⁻¹ |
